According to IntAct's records for PubMed 17568776:

B1: RING finger and CHY zinc finger domain-containing protein 1 (Homo sapiens), Q96PM5 (parent)
chain: MAATAREDGASGQERGQRGCEHYDRGCLLKAPCCDKLYTCRLCHDNNEDHQLDRFKVKEVQCINCEKIQHAQQTCEECSTLFGEYYCDICHLFDKDKKQYHCENCGICRIGPKEDFFHCLKCNLCLAMNLQGRHKCIENVSRQNCPICLEDIHTSRVVAHVLPCGHLLHRTCYEEMLKEGYRCPLCMHSALDMTRYWRQLDDEVAQTPMPSEYQNMTVDILCNDCNGRSTVQFHILGMKCKICESYNTAQAGGRRISLDQQ

Variants of: B1
Details: with kcc2a_human CAMK2A

Row | Variant | effect of a mutation on the interaction
1 | S155A | disrupting interaction
2 | T154A | disrupting interaction
